Measured values reported in patent US20110166062A1 (INDIANA UNIVERSITY RESEARCH AND TECHNOLOGY, published 2011).
Where no end group is shown, it is not given here. [ ]: non-standard residue; d: D form. The star is where a group is joined. PEG 40 kDa = PEG (40 kDa) covalently attached to Cys; Stearoyl = CCCCCCCCCCCCCCCCCC(=O)*; Palmitoyl = CCCCCCCCCCCCCCCC(=O)*; Myristoyl = CCCCCCCCCCCCCC(=O)*; Octanoyl = CCCCCCCC(=O)*; Aib = CC(C)(N)C(=O)O

B1: mt-277 (peptide)
peptide: Y[Aib]QGTFTSDYSIYLDKQAA[Aib]EFVNWLLAGGPSSGAPPPSK(Myristoyl)-NH2
modifications: N-terminus assumed
SMILES: CCCCCCCCCCCCCC(=O)NCCCC[C@H](NC(=O)[C@H](CO)NC(=O)[C@@H]1CCCN1C(=O)[C@@H]1CCCN1C(=O)[C@@H]1CCCN1C(=O)[C@H](C)NC(=O)CNC(=O)[C@H](CO)NC(=O)[C@H](CO)NC(=O)[C@@H]1CCCN1C(=O)CNC(=O)CNC(=O)[C@H](C)NC(=O)[C@H](CC(C)C)NC(=O)[C@H](CC(C)C)NC(=O)[C@H](Cc1c[nH]c2ccccc12)NC(=O)[C@H](CC(N)=O)NC(=O)[C@@H](NC(=O)[C@H](Cc1ccccc1)NC(=O)[C@H](CCC(=O)O)NC(=O)C(C)(C)NC(=O)[C@H](C)NC(=O)[C@H](C)NC(=O)[C@H](CCC(N)=O)NC(=O)[C@H](CCCCN)NC(=O)[C@H](CC(=O)O)NC(=O)[C@H](CC(C)C)NC(=O)[C@H](Cc1ccc(O)cc1)NC(=O)[C@@H](NC(=O)[C@H](CO)NC(=O)[C@H](Cc1ccc(O)cc1)NC(=O)[C@H](CC(=O)O)NC(=O)[C@H](CO)NC(=O)[C@@H](NC(=O)[C@H](Cc1ccccc1)NC(=O)[C@@H](NC(=O)CNC(=O)[C@H](CCC(N)=O)NC(=O)C(C)(C)NC(=O)[C@@H](N)Cc1ccc(O)cc1)[C@@H](C)O)[C@@H](C)O)[C@@H](C)CC)C(C)C)C(N)=O
B2: mt-278 (peptide)
peptide: Y[Aib]QGTFTSDYSIYLDKQAA[Aib]EFVNWLLAGGPSSGAPPPSK(Palmitoyl)-NH2
modifications: N-terminus assumed
SMILES: CCCCCCCCCCCCCCCC(=O)NCCCC[C@H](NC(=O)[C@H](CO)NC(=O)[C@@H]1CCCN1C(=O)[C@@H]1CCCN1C(=O)[C@@H]1CCCN1C(=O)[C@H](C)NC(=O)CNC(=O)[C@H](CO)NC(=O)[C@H](CO)NC(=O)[C@@H]1CCCN1C(=O)CNC(=O)CNC(=O)[C@H](C)NC(=O)[C@H](CC(C)C)NC(=O)[C@H](CC(C)C)NC(=O)[C@H](Cc1c[nH]c2ccccc12)NC(=O)[C@H](CC(N)=O)NC(=O)[C@@H](NC(=O)[C@H](Cc1ccccc1)NC(=O)[C@H](CCC(=O)O)NC(=O)C(C)(C)NC(=O)[C@H](C)NC(=O)[C@H](C)NC(=O)[C@H](CCC(N)=O)NC(=O)[C@H](CCCCN)NC(=O)[C@H](CC(=O)O)NC(=O)[C@H](CC(C)C)NC(=O)[C@H](Cc1ccc(O)cc1)NC(=O)[C@@H](NC(=O)[C@H](CO)NC(=O)[C@H](Cc1ccc(O)cc1)NC(=O)[C@H](CC(=O)O)NC(=O)[C@H](CO)NC(=O)[C@@H](NC(=O)[C@H](Cc1ccccc1)NC(=O)[C@@H](NC(=O)CNC(=O)[C@H](CCC(N)=O)NC(=O)C(C)(C)NC(=O)[C@@H](N)Cc1ccc(O)cc1)[C@@H](C)O)[C@@H](C)O)[C@@H](C)CC)C(C)C)C(N)=O
B3: mt-257 (peptide)
peptide: Y[Aib]QGTFTSDYSIYLDKQAA[Aib]EFVCWLLAG-NH2
modifications: N-terminus assumed
SMILES: CC[C@H](C)[C@H](NC(=O)[C@H](CO)NC(=O)[C@H](Cc1ccc(O)cc1)NC(=O)[C@H](CC(=O)O)NC(=O)[C@H](CO)NC(=O)[C@@H](NC(=O)[C@H](Cc1ccccc1)NC(=O)[C@@H](NC(=O)CNC(=O)[C@H](CCC(N)=O)NC(=O)C(C)(C)NC(=O)[C@@H](N)Cc1ccc(O)cc1)[C@@H](C)O)[C@@H](C)O)C(=O)N[C@@H](Cc1ccc(O)cc1)C(=O)N[C@@H](CC(C)C)C(=O)N[C@@H](CC(=O)O)C(=O)N[C@@H](CCCCN)C(=O)N[C@@H](CCC(N)=O)C(=O)N[C@@H](C)C(=O)N[C@@H](C)C(=O)NC(C)(C)C(=O)N[C@@H](CCC(=O)O)C(=O)N[C@@H](Cc1ccccc1)C(=O)N[C@H](C(=O)N[C@@H](CS)C(=O)N[C@@H](Cc1c[nH]c2ccccc12)C(=O)N[C@@H](CC(C)C)C(=O)N[C@@H](CC(C)C)C(=O)N[C@@H](C)C(=O)NCC(N)=O)C(C)C
B4: mt-323 (peptide)
peptide: Y[Aib]QGTFTSDYSIYLDKQAA[Aib]EFVNWLLAGGPSSGAPPPSK(Octanoyl)-NH2
modifications: N-terminus assumed
SMILES: CCCCCCCC(=O)NCCCC[C@H](NC(=O)[C@H](CO)NC(=O)[C@@H]1CCCN1C(=O)[C@@H]1CCCN1C(=O)[C@@H]1CCCN1C(=O)[C@H](C)NC(=O)CNC(=O)[C@H](CO)NC(=O)[C@H](CO)NC(=O)[C@@H]1CCCN1C(=O)CNC(=O)CNC(=O)[C@H](C)NC(=O)[C@H](CC(C)C)NC(=O)[C@H](CC(C)C)NC(=O)[C@H](Cc1c[nH]c2ccccc12)NC(=O)[C@H](CC(N)=O)NC(=O)[C@@H](NC(=O)[C@H](Cc1ccccc1)NC(=O)[C@H](CCC(=O)O)NC(=O)C(C)(C)NC(=O)[C@H](C)NC(=O)[C@H](C)NC(=O)[C@H](CCC(N)=O)NC(=O)[C@H](CCCCN)NC(=O)[C@H](CC(=O)O)NC(=O)[C@H](CC(C)C)NC(=O)[C@H](Cc1ccc(O)cc1)NC(=O)[C@@H](NC(=O)[C@H](CO)NC(=O)[C@H](Cc1ccc(O)cc1)NC(=O)[C@H](CC(=O)O)NC(=O)[C@H](CO)NC(=O)[C@@H](NC(=O)[C@H](Cc1ccccc1)NC(=O)[C@@H](NC(=O)CNC(=O)[C@H](CCC(N)=O)NC(=O)C(C)(C)NC(=O)[C@@H](N)Cc1ccc(O)cc1)[C@@H](C)O)[C@@H](C)O)[C@@H](C)CC)C(C)C)C(N)=O
B5: mt-279 (peptide)
peptide: Y[Aib]QGTFTSDYSIYLDKQAA[Aib]EFVNWLLAGGPSSGAPPPSK(Stearoyl)-NH2
modifications: N-terminus assumed
SMILES: CCCCCCCCCCCCCCCCCC(=O)NCCCC[C@H](NC(=O)[C@H](CO)NC(=O)[C@@H]1CCCN1C(=O)[C@@H]1CCCN1C(=O)[C@@H]1CCCN1C(=O)[C@H](C)NC(=O)CNC(=O)[C@H](CO)NC(=O)[C@H](CO)NC(=O)[C@@H]1CCCN1C(=O)CNC(=O)CNC(=O)[C@H](C)NC(=O)[C@H](CC(C)C)NC(=O)[C@H](CC(C)C)NC(=O)[C@H](Cc1c[nH]c2ccccc12)NC(=O)[C@H](CC(N)=O)NC(=O)[C@@H](NC(=O)[C@H](Cc1ccccc1)NC(=O)[C@H](CCC(=O)O)NC(=O)C(C)(C)NC(=O)[C@H](C)NC(=O)[C@H](C)NC(=O)[C@H](CCC(N)=O)NC(=O)[C@H](CCCCN)NC(=O)[C@H](CC(=O)O)NC(=O)[C@H](CC(C)C)NC(=O)[C@H](Cc1ccc(O)cc1)NC(=O)[C@@H](NC(=O)[C@H](CO)NC(=O)[C@H](Cc1ccc(O)cc1)NC(=O)[C@H](CC(=O)O)NC(=O)[C@H](CO)NC(=O)[C@@H](NC(=O)[C@H](Cc1ccccc1)NC(=O)[C@@H](NC(=O)CNC(=O)[C@H](CCC(N)=O)NC(=O)C(C)(C)NC(=O)[C@@H](N)Cc1ccc(O)cc1)[C@@H](C)O)[C@@H](C)O)[C@@H](C)CC)C(C)C)C(N)=O

Tests used:
Assay in all cases: cell-based or functional assay
glucagon receptor = glucagon receptor (UniProt P47871 26-477, limits assumed)
GIP receptor = molecular target: T1, GIP receptor (UniProt P48546 22-466)
T1 sequence (looked up): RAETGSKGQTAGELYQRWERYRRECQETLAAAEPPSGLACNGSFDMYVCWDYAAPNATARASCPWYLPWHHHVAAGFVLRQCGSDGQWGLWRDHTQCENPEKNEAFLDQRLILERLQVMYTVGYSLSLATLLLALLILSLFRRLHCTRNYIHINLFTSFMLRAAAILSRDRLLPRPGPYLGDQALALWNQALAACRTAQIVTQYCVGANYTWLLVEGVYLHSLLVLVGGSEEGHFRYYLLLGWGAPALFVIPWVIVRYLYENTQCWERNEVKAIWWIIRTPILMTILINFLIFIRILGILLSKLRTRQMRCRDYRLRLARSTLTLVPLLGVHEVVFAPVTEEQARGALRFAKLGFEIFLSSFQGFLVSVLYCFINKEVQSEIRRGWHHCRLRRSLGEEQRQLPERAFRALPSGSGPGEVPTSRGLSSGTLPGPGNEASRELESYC

GLP-1 receptor = GLP-1 receptor (UniProt P43220 24-463, limits assumed)

Chain of glucagon receptor (P47871 26-477 limits assumed): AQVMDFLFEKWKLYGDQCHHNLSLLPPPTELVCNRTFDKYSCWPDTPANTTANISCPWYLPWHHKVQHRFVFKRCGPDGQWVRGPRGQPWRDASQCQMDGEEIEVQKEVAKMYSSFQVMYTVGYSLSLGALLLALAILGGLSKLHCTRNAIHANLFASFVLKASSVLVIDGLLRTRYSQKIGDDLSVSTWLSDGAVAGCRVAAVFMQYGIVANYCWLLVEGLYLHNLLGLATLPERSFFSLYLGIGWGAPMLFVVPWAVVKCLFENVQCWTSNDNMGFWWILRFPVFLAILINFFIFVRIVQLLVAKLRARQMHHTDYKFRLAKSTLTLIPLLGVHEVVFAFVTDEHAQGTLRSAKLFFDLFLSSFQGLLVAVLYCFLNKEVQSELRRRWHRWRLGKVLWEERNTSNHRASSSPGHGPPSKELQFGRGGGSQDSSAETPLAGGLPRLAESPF

Row | Binder | EC50 (glucagon receptor) [nM] | EC50 (GIP receptor) [pM] | EC50 (GLP-1 receptor) [pM]
1 | Y[Aib]EGTFTSDYSIYLDKQAA[Aib]EFVNWLLAGGPSSGAPPPSK-NH2 [mt-263] | 3.18 | 3.1 | –
2 | Y[Aib]QGTFTSDYSIYLDKQAA[Aib]EFVC(PEG 40 kDa)WLLAG-NH2 [mt-281] | 0.282 | – | –
3 | B1 | – | 5.2 | 8.6
4 | B2 | – | 2.8 | 4.2
5 | Y[Aib]EGTFTSDYSIYLDKQAA[Aib]EFVNWLLAGGPSSGAPPPSC(PEG 40 kDa)-NH2 [mt-295] | 87.3 | – | –
6 | Y[Aib]EGTFTSDKSIYLDKQAA[Aib]EFVCWLLAGGPSSGAPPPS-NH2 (also: C-terminal amidation listed at position 40 of 39-residue chain) [mt-338] | 295 | 23.4 | –
7 | Y[Aib]EGTFTSDK(Myristoyl)SIYLDKQAA[Aib]EFVCWLLAGGPSSGAPPPS-NH2 (also: C-terminal amidation listed at position 40 of 39-residue chain) [mt-337] | 106 | 8 | –
8 | B3 | 0.211 | – | –
9 | B4 | – | 8.4 | –
10 | Y[Aib]EGTFTSDYSIYLDKQAA[Aib]EFVNWLLAGGPSSGAPPPSC-NH2 [mt-256] | 58.9 | – | –
11 | B5 | – | 4.5 | 4.6
